{"source": "the DeepSol protein solubility set"}
{"assay": "soluble on expression in E. coli; label from the status in PepcDB or PDB records"}
{"sequence": "MEKFGKPLEENGKEATATVIGLGKLGSEELNYYSDVDLMFIHSTDKGKAGNLSLNDFFQRLFQKVVKLLNAQTPEGVPYFVDLDLRPFGKSGPLSMPLRSAELYYESYGRIWERFALLRARYCAGDEELAQKFMKEVVRPFVFGPADYKLVEEIRLMKKRIEAEAKKKFIKGYNVKTGEGGIREVEFSVQSLVILLGSKTPILRESNTYRAIYKLMQKGVFSSEEAQKLEESYTFLRKLEHRIQLRECLQTQVLKESDKETFAKFLGFESKEEFEEKLKETRAFVKSVFSQILPEREEEELDELQEAVIMEDEESGTQILKQKGFKSTRQIFTLLSEPLYGSMNVHFTEKEKKLYIKLIPKLVNLALSSQNPDQSIKNFFKFFFNPTGRRVILSEHKREEFLEKLFTVFSVSDYLSHLVARNPDLVEDALTLYRDFPKFEDFKREFEKYRETLNLSPENLYRRFKTVWEVRIGLVYLLKEEDRYEKLKKLYISLSTLADFILSNLWKDITLEENTALLYALGKLGSRELNFNSDLDLVFAVKSLEEKEKVHEKAKELVRFLTAHTTEGYLYSVDFRLRPMGSKGELVPTFDFYKKYFEKEARTWERLAWTRARYITGNEEFKEEFERLIENFLFEKPWGEKEKREVYEMRMKLQSVAKRGRGVVDLKLGEGGIVDGEFLVQYLLIKEKIRETSMIRGFEVLMEKYPRLKEAYDSFMFLRLVETHLRLSKERGTSVLSEQDIPKVALSLGMKPEELKESIKEKMKKMREVFNEFLAQ", "soluble on expression in E. coli": "not soluble"}
{"sequence": "MGHHHHHHHHSSGHIEGRHMAHLLIVNVASHGLILPTLTVVTELVRRGHRVSYVTAGGFAEPVRAAGATVVPYQSEIIDADAAEVFGSDDLGVRPHLMYLRENVSVLRATAEALDGDVPDLVLYDDFPFIAGQLLAARWRRPAVRLSAAFASNEHYSFSQDMVTLAGTIDPLDLPVFRDTLRDLLAEHGLSRSVVDCWNHVEQLNLVFVPKAFQIAGDTFDDRFVFVGPCFDDRRFLGEWTRPADDLPVVLVSLGTTFNDRPGFFRDCARAFDGQPWHVVMTLGGQVDPAALGDLPPNVEAHRWVPHVKVLEQATVCVTHGGMGTLMEALYWGRPLVVVPQSFDVQPMARRVDQLGLGAVLPGEKADGDTLLAAVGAVAADPALLARVEAMRGHVRRAGGAARAADAVEAYLARAR", "soluble on expression in E. coli": "soluble"}
{"sequence": "MAHHHHHHMPIKNVQEFLPNVRPDAFPVVVAVQAQASIPVGINLAELSCATRNVEYMPNNRIPSATMRLHEPTAVVMMHNSGALSIIGAASVSEARQAAELAARIIRKALNLNFSSLKFRVRSIAARFNVCSPIRLDKLAAYQLDPAMSIGVAKLQVSYEPERFNGCVLRLVGKSSRGDNQWSVSCSVFVTGKVQLMGARSMDELRFAFNAFVPIIAKNLDERKTA", "soluble on expression in E. coli": "not soluble"}
{"sequence": "GMKNVTKASIDDLDSIVHIDIDVIGNDSRRNYIKHSIDEGRCVIVKEDNSISGFLTYDTNFFDCTFLSLIIVSPTKRRRGYASSLLSYMLSHSPTQKIFSSTNESNESMQKVFNANGFIRSGIVENLDEGDPEIIFYTKKLRA", "soluble on expression in E. coli": "soluble"}
{"sequence": "MHVLIVDDEPLAREELSYLVSQHPQVTSVAEADSVAEAMEEMMDQKPDLLFLDIHLTDESGFDLAEKLTHLKKAPYLVFATAYDQYALKAFQVNAKDYILKPFEEEKITQVIEKASKEMGQAVPENTAEKGPKSEAIPIQGEDRIYLVAPEDIYLVSVEERQLSIFVDQQVYKMTGTLNSIEQKLPATLFIKTHRSFILNRTKIQEIQPWFNNTLQVILTNGSKVPVSRSYVKEFKEKLGLS", "soluble on expression in E. coli": "not soluble"}
{"sequence": "MGSDKIHHHHHHMAHLPQMKIPATYMRGGTSKGVFFSLTDLPAAAQVAGAARDAILLRVIGSPDPYGKHTDGMGGATSSTSKTVILSKSTQADHDVDYLFGQVSIDKPFVDWSGNCGNLTAAVGSFAISNGLIDPSRVPENGTAIVRIWQANIHKTIIAHVPITNGEVQETGDFELDGVTFPAAEVQVEFLDPADGDGAMFPTGNVVDELNVPGVGTFKATMINAGIPTIFINAADIQYQGTELQDDINNDDKALAMFETIRAYGAVKMGLIKHIDEAVARQHTPKVAFVAPAANYISSSGKAVNTDDIDLVVRALSMGKLHHAMMGTAAVAIGTAAAIPGTLVNLAAGGGELSAVRFGHPSGTLRVGAQAALVQGQWQVKKAIMSRSARVLMEGKVSIPQ", "soluble on expression in E. coli": "not soluble"}
{"sequence": "MSRTQFEPAETYTAYTAYDEAYEAHEAYEAHEAYEAHETYERPAPYDLHSAPTLPYGGTYPSAPPPVHEPTVPALPRQSDGRAERRRRARGAGRADASLRRLVPRALVVAFLAGGTTAFVAKDKAVELTVDGSPRTLHTFADDVSELLAEEGVQVGAHDVIAPAPGTPLTSGEDVTVHHGRPVLLTLDGHRRQVWTTAGTVAGALRQLGVRTQGAYLSTGPSRRIGREGLALVVRTERVVTVMADGRTRTVRTNAATVGEVVEEAGITLRGEDTTSVPATGFPRDGQTVTVLRITGSQEVREDPIPFDERRAEDASLFRGTEVVQEAGRPGLRRTTYALRTVNGVRQKPRRLRTEVVREPSPRIVRVGTRPRPASVHGADHLNWQGLAACESGGRADAVDPSGTYGGLYQFDSATWHGLGGEGRPEDASAAEQTYRAQKLYVRSGADAWPHCGARLRELEHHHHHH", "soluble on expression in E. coli": "not soluble"}
{"sequence": "MGSDKIHHHHHHMSPQEYCQNKAAASGSSFYYSFLFLPKAKREAITALYAFCREVDDIADDVQDVNVAQTKLNWWRSEIINLFEGKPQHPVTMALQSPVRELKLKQQHFLEIINGMQMDLEQNRYRDFEELELYCYRVASVVGLLSASIFGYSNPQTLQYALDLGMAFQLTNITRDVGEDGRRGRIYLPLDEISRFGVSEQDILQGKASDNMRQLLEFQVERAERYYEKALAELPLEDRKQQRTGLIMASIYRTLLKEIKRDDIQVVLNARVSLTPIRKLWLAWLTWIRN", "soluble on expression in E. coli": "not soluble"}
{"sequence": "MQITEALISEPGEIRRFVQQAVDHWPNLLAFHFTLYSAEGIYGQQIQTFCSSFHRRVHERITEHNHTVSPSAPVVLRWLREQHEGAQIRCLLLLSQTSICHPRVGVMADEECAQLVDLLQQTWSVISAGGQCRVERCFRVARPGSSGQYVALKTAVQSFMSQVIATIIR", "soluble on expression in E. coli": "not soluble"}
{"sequence": "MEHRDIVIVGGGMVGSALGAALSGKGLSVSVLEREAPAPFAPEQAPDLRVSAISPASAAFLQTIGAWGQALAMRAAPYRRMQVWERDEAAGTLFDAAEAGVPELGHIVENRVVQLAATEALLAKGDIDYRCPAVVSDIVYRPQASQLTLSDGSRLQARLLIAADGARSQVRDAAGIGVTGWDYPMHALVLSCRIDGGQQDITWQRFTPDGPQAFLPLSGDAASLVWYHRPEEVKRLLTLGDDELIAAVSQAFPRKLPGIRELAARGSFGLTRRHAQCYVKDGVALAGDAAHTIHPLAGQGVNLGFQDAAMLARTILDAHAKGEDWASGKTLVRYQRARKPANLAMQAGMDAFCYGFANDIGPLRLLRGLGLRLADKAGPLKREAIRYALGLRALEHHHHHH", "soluble on expression in E. coli": "not soluble"}
{"sequence": "MGQVEVIDRRQSVFGDDIQLQKRSSSYEIISNGVFLMSTENGRSEREMVTLGAQHMKNAVHSVLIGGLGVGITADEAVHLNDHVQVHVVEIEPSVVEWQYRYLYPFSNQALEHERTAIIISDIQQWLRTNERTYDLICLDTDNGPDWMVHKQNASLYGKIGLELVRERVRVGGAVSFWSASASESFLHELETLFDRVYEHAVSISHTLPPDYVYVACRDLEHHHHHH", "soluble on expression in E. coli": "soluble"}
{"sequence": "MGSDKIHHHHHHMKDKDINNDFNHIFPKDIRDDFLFSLDSYRLFLEGLSINPSLFYQKWSDVHLQSIIDKYWKPTQKSDWKWSLALPIFSLLENYINTFNKPIIIGFSGLPGSGKSTLGLWIDSVARELSLDIKVISLDDFYLPGHEMDVAMTGNPWNVPRGFPGSHSLDLLNQSLDVFLKTGVLNSPTFDKSLRDGKGDRSGWCDSQPRVLILEGWFVGCEAVSDLSKIDSMAADEFNLSLSQSEKDYRILIQESLFEYSHIWKKFEKIWHLKSSQFNNTILWKSQQEGEMIKLKGSGLKGNNLSNFIRMIQTSIPQQSLSFINSDTTVGINQDRRINFLKTSKYYF", "soluble on expression in E. coli": "not soluble"}
{"sequence": "HNPLYTAHELESPFQDHGARVAIVWDKAADTLEKLRRNTPLETIVSVNMMTAMPAVQQALLRLPIPMIRKKRDALTASAPNTIPWEILVGSALGGNGDDIVPCPEVTKKSIALILYTSGTTGTPKGAQLSHGNLFANIMQGKAWVKGIGDQDER", "soluble on expression in E. coli": "not soluble"}
{"sequence": "MGSDKIHHHHHHMASIKAINNSAHGNVKVKSNPSFIQSKTKHFAPVVVQEFISASKEFPIVFIKDAETGRFNAVVLLGLKPQENLFFDEKSWQGSYIPEALTLYPFVIHQAEGSDKALLCVDEDSALVNETIGDAFFDEKGVQKEWLTAKGEAVVDYVNKSGVTQNFIQLLLAKELLAPQTLSLNLAGQEEYTLDGLYVINEQKLNDLSDSEFSELRKTNALPAIYAILMSMQCIKKLIDRQSSK", "soluble on expression in E. coli": "not soluble"}
{"sequence": "TRPIFAIEQLSPYQNVWTIKARVSYKGEIKTWHNQRGDGKLFNVNFLDTSGEIRATAFNDFATKFNEILQEGKVYYVSKAKLQPAKPQFTNLTHPYELNLDRDTVIEECFDESN", "soluble on expression in E. coli": "soluble"}
{"sequence": "MGSDKIHHHHHHMSNKKLIINADDFGYTPAVTQGIIEAHKRGVVTSTTALPTSPYFLEAMESARISAPTLAIGVHLTLTLNQAKPILPREMVPSLVDEAGYFWHQSIFEEKVNLEEVYNEWDAQIISFMKSGRRPDHIDSHHNVHGKNKKLLGVALALARKYQLPLRNASRSIETKDYLELYQDVRTPDEMLYQFYDKAISTETILQLLDMVVCSEGEVFEINCHPAFIDTILQNQSGYCMPRIREVEILTSQEVKEAIEERGILLANYESLAM", "soluble on expression in E. coli": "not soluble"}
{"sequence": "MGSDKIHHHHHHATSKHVYGENENPYLKTNADAVVSTKAEFPISRLEAKTVKLTDYAEKFHTYLGMTVDETLAALSNGSVVFYPINISKNCWNRTAPTKGTNGWYYNTAGGVCDAASGIASIELDATKKELVLNVLETASVGTAISINVGFAINNGANFDDYVRFAFDVTVTDPGRIVVANTIPAGDYSAFSIEFADYQEVIESCLGLTLSEFITACKEPGGPIALYMVDSESGEWNTTSDYTAGGSGIGYWLTSNLKVTNWSDDGSTGSVLFVETQENGDMVNIGRNPASTSGSVFNVNFVYALKEDNSKFVEFIVKATLE", "soluble on expression in E. coli": "not soluble"}
{"sequence": "MGSDKIHHHHHHMIFVGCSGWSYEEWNGVFYPKSKINKLKFYSTMFNTVEVNSTFYREINNDIINRWIETVRGKNFIFSIKVPQNITHKAILEKDSNSKSLYETFIDKTVRPIRNARMLGAVLVQLPPSFNSNLQTELLDTICCENEYRTAVEVRNKDLYSNEELRKELEKRGIAIVDVDSTEHPLSNLNSGLKWSYVRLHGRAQLGWKSQNPYDYRYSEQEISDLSSKIMAKNYDEIFVYFNNHPRGSAPINALKMASCLGISNNWFF", "soluble on expression in E. coli": "not soluble"}
{"sequence": "NPYETFRIADELRRELVGDTVTYVVNRNINFTDICINDCKFCSFRNRKKYLLSLDEIKQKVEEAVEFGCTELCIQGGLLPDADLDFYLSILQAVRDVDKKIHIHAFSPMEVVHAARNSGMTVEEVLKELKKEGLGSMPGTAAEILDDSIRALICPRKLKTAEWVEVIKTAHRVGIPTTATIMYGHIDTWEHRINHLLLIKKIQQETGGITELIPLPFMSKNNELGRYAKGSSGFDDLLMIAIARILLYPEIKNIQASWVKMGQKLAQAALHVGANDLGGTLMEENISKSAGATSGEFMHPEELRELIKIAGRVPKQR", "soluble on expression in E. coli": "not soluble"}
{"sequence": "MGSDKIHHHHHHMEQTGYGEHIAHTVRNVPYETAIQTEDIAGELAKKFALPYNHAKTITNVKLKRMADKGEIERLQKGIYCHVKQTFFGKVTPTADQVLLKTLMVQNGAKIGYESGASLLNKLGLTTLIPRDIEITTNRYGAKLPEGCHIKLRKPPMPVTDENWKYLQFIDVLMYLPDAHTDAEKPEVLLRQHAKEQQLDYLTLIFTARKYYPQKIVLPLIDLLMEVENETASR", "soluble on expression in E. coli": "not soluble"}
